Experiments:
GST-Smad2 (full-length) = GST-Smad2 (full-length) (UniProt Q15796)
GST-Smad3deltaMH1 = GST-Smad3deltaMH1 (UniProt P84022)
GST-Smad1 = GST-Smad1 (UniProt Q15797)
Sequence of GST-Smad1 (Q15797 whole entry): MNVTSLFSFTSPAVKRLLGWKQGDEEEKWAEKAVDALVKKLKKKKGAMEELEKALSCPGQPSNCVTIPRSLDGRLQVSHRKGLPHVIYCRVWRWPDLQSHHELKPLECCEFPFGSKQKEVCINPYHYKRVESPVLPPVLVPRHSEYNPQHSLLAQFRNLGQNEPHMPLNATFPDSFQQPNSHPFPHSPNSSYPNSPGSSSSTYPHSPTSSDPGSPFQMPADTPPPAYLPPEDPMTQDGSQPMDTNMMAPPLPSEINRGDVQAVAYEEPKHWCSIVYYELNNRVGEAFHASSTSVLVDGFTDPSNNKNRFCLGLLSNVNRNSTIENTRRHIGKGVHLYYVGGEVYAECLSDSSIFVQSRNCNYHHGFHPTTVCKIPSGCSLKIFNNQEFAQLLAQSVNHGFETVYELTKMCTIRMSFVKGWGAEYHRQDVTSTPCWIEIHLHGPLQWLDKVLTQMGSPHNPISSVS

Sequence of GST-Smad2 (full-length) (Q15796 whole entry): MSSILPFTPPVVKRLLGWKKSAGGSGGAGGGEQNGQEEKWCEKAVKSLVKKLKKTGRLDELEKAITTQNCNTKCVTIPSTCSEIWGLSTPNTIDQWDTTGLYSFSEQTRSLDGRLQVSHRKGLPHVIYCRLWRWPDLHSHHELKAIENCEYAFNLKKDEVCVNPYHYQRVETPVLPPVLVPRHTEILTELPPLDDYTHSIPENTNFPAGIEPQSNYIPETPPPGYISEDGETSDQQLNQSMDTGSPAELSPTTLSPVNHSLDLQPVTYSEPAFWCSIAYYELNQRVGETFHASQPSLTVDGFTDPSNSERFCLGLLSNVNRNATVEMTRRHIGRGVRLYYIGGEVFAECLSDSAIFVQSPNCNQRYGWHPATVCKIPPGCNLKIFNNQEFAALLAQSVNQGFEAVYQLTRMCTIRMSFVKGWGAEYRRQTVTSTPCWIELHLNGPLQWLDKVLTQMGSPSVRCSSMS
Sequence of GST-Smad3deltaMH1 (P84022 137-425, stated change not applied): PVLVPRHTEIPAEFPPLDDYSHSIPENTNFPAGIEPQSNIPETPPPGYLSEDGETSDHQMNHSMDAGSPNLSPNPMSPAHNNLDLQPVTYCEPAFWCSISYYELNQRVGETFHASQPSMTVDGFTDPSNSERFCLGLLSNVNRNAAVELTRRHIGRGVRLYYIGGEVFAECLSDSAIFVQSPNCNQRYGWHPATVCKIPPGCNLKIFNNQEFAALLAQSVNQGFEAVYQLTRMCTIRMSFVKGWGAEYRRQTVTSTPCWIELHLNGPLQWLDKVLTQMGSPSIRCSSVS

Substance: GST-TβR-I (GST fused to the cytoplasmic part, residues 148-503, of constitutively active TβR-I T204D, FLAG-tagged at the C-terminus)
- phosphorylation of substrate in in vitro kinase assay (32P, SDS-PAGE, phosphorimager) (GST-Smad2 (full-length)): Purified GST-TβR-I kinase efficiently phosphorylated itself, as well as the C-terminal part of Smad3 and full-length GST-Smad2 as exogenous substrates
- phosphorylation of substrate in in vitro kinase assay (32P, SDS-PAGE, phosphorimager) (GST-Smad3deltaMH1): Purified GST-TβR-I kinase efficiently phosphorylated itself, as well as the C-terminal part of Smad3 and full-length GST-Smad2 as exogenous substrates
- phosphorylation of substrate in in vitro kinase assay (32P, SDS-PAGE, phosphorimager) (GST-Smad1): no phosphorylation of GST-Smad1 was observed
